Laboratory results published in IntAct's records for PubMed 19229295.

B1: Bone morphogenetic protein receptor type-1B (Homo sapiens), O00238 (parent)
chain: MLLRSAGKLNVGTKKEDGESTAPTPRPKVLRCKCHHHCPEDSVNNICSTDGYCFTMIEEDDSGLPVVTSGCLGLEGSDFQCRDTPIPHQRRSIECCTERNECNKDLHPTLPPLKNRDFVDGPIHHRALLISVTVCSLLLVLIILFCYFRYKRQETRPRYSIGLEQDETYIPPGESLRDLIEQSQSSGSGSGLPLLVQRTIAKQIQMVKQIGKGRYGEVWMGKWRGEKVAVKVFFTTEEASWFRETEIYQTVLMRHENILGFIAADIKGTGSWTQLYLITDYHENGSLYDYLKSTTLDAKSMLKLAYSSVSGLCHLHTEIFSTQGKPAIAHRDLKSKNILVKKNGTCCIADLGLAVKFISDTNEVDIPPNTRVGTKRYMPPEVLDESLNRNHFQSYIMADMYSFGLILWEVARRCVSGGIVEEYQLPYHDLVPSDPSYEDMREIVCIKKLRPSFPNRWSSDECLRQMGKLMTECWAHNPASRLTALRVKKTLAKMSESQDIKL
partner: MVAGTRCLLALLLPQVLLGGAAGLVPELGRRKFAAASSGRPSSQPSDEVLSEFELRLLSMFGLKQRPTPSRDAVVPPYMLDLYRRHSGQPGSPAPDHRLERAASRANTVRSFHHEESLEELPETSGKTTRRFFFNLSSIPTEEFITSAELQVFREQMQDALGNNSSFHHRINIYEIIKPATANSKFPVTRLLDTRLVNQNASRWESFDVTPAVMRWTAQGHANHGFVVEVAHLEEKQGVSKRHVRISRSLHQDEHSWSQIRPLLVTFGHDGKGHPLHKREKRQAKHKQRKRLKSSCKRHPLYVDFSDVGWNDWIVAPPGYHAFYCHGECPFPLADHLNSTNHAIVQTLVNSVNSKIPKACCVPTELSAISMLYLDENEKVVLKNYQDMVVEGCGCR
B2: Growth/differentiation factor 5 (Homo sapiens), P43026 (parent)
chain: MRLPKLLTFLLWYLAWLDLEFICTVLGAPDLGQRPQGTRPGLAKAEAKERPPLARNVFRPGGHSYGGGATNANARAKGGTGQTGGLTQPKKDEPKKLPPRPGGPEPKPGHPPQTRQATARTVTPKGQLPGGKAPPKAGSVPSSFLLKKAREPGPPREPKEPFRPPPITPHEYMLSLYRTLSDADRKGGNSSVKLEAGLANTITSFIDKGQDDRGPVVRKQRYVFDISALEKDGLLGAELRILRKKPSDTAKPAAPGGGRAAQLKLSSCPSGRQPAALLDVRSVPGLDGSGWEVFDIWKLFRNFKNSAQLCLELEAWERGRAVDLRGLGFDRAARQVHEKALFLVFGRTKKRDLFFNEIKARSGQDDKTVYEYLFSQRRKRRAPLATRQGKRPSKNLKARCSRKALHVNFKDMGWDDWIIAPLEYEAFHCEGLCEFPLRSHLEPTNHAVIQTLMNSMDPESTPPTCCVPTRLSPISILFIDSANNVVYKQYEDMVVESCGCR

Variants of: B1
Details: with bmp2_human BMP2, P12643

| effect of a mutation on the interaction | Variant |
| --- | --- |
| disrupting interaction | MLLRSAGKLNVGTKKEDGESTAPTPRPKVLRCKCHHHCPEDSVNNICSTDGYCFTMIEEDDSGLPVVTSGCLGLEGSDAQCRDTPIPHQRRSIECCTERNECNKDLHPTLPPLKNRDFVDGPIHHRALLISVTVCSLLLVLIILFCYFRYKRQETRPRYSIGLEQDETYIPPGESLRDLIEQSQSSGSGSGLPLLVQRTIAKQIQMVKQIGKGRYGEVWMGKWRGEKVAVKVFFTTEEASWFRETEIYQTVLMRHENILGFIAADIKGTGSWTQLYLITDYHENGSLYDYLKSTTLDAKSMLKLAYSSVSGLCHLHTEIFSTQGKPAIAHRDLKSKNILVKKNGTCCIADLGLAVKFISDTNEVDIPPNTRVGTKRYMPPEVLDESLNRNHFQSYIMADMYSFGLILWEVARRCVSGGIVEEYQLPYHDLVPSDPSYEDMREIVCIKKLRPSFPNRWSSDECLRQMGKLMTECWAHNPASRLTALRVKKTLAKMSESQDIKL [F79A] |

Variants of: B2
Details: with bmpr2_human BMPR2, Q13873
Chain of bmpr2_human BMPR2, Q13873 (Q13873 whole entry): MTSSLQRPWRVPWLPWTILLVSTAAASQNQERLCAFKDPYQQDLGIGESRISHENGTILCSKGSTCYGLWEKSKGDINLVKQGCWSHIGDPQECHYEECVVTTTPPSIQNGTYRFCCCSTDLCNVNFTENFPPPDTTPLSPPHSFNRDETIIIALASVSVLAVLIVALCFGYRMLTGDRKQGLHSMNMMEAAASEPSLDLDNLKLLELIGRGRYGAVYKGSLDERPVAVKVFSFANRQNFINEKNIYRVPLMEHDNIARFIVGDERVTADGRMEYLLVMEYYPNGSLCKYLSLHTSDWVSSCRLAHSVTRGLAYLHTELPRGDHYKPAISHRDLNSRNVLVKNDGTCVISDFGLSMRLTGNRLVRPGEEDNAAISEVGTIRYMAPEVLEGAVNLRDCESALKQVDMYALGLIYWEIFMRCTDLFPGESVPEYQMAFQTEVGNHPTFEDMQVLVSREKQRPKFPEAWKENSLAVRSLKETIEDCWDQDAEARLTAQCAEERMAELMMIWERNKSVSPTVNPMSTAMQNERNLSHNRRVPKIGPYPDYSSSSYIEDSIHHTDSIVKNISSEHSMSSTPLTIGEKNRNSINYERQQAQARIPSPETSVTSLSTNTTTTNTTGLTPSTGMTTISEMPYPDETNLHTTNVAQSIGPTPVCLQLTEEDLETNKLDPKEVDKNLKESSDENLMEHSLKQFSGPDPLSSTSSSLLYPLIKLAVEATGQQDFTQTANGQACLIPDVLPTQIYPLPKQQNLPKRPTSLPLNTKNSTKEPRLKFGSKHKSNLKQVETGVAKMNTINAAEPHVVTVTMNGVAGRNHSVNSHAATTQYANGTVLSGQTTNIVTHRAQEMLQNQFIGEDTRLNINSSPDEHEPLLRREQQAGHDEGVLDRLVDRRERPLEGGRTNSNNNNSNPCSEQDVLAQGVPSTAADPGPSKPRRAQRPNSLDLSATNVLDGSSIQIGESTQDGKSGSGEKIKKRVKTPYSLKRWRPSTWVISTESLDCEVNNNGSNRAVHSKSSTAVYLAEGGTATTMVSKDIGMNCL

| effect of a mutation on the interaction | Variant |
| --- | --- |
| decreasing interaction | MRLPKLLTFLLWYLAWLDLEFICTVLGAPDLGQRPQGTRPGLAKAEAKERPPLARNVFRPGGHSYGGGATNANARAKGGTGQTGGLTQPKKDEPKKLPPRPGGPEPKPGHPPQTRQATARTVTPKGQLPGGKAPPKAGSVPSSFLLKKAREPGPPREPKEPFRPPPITPHEYMLSLYRTLSDADRKGGNSSVKLEAGLANTITSFIDKGQDDRGPVVRKQRYVFDISALEKDGLLGAELRILRKKPSDTAKPAAPGGGRAAQLKLSSCPSGRQPAALLDVRSVPGLDGSGWEVFDIWKLFRNFKNSAQLCLELEAWERGRAVDLRGLGFDRAARQVHEKALFLVFGRTKKRDLFFNEIKARSGQDDKTVYEYLFSQRRKRRAPLATRQGKRPSKNLKARCSRKALHVNFKDMGWDDWIIAPLEYEAFHCEGLCEFPLASHLEPTNHAVIQTLMNSMDPESTPPTCCVPTRLSPISILFIDSANNVVYKQYEDMVVESCGCR [R438A] |

Variants of: B2
Details: with bmr1b_human BMPR1B

| effect of a mutation on the interaction | Variant |
| --- | --- |
| increasing interaction | MRLPKLLTFLLWYLAWLDLEFICTVLGAPDLGQRPQGTRPGLAKAEAKERPPLARNVFRPGGHSYGGGATNANARAKGGTGQTGGLTQPKKDEPKKLPPRPGGPEPKPGHPPQTRQATARTVTPKGQLPGGKAPPKAGSVPSSFLLKKAREPGPPREPKEPFRPPPITPHEYMLSLYRTLSDADRKGGNSSVKLEAGLANTITSFIDKGQDDRGPVVRKQRYVFDISALEKDGLLGAELRILRKKPSDTAKPAAPGGGRAAQLKLSSCPSGRQPAALLDVRSVPGLDGSGWEVFDIWKLFRNFKNSAQLCLELEAWERGRAVDLRGLGFDRAARQVHEKALFLVFGRTKKRDLFFNEIKARSGQDDKTVYEYLFSQRRKRRAPLATRQGKRPSKNLKARCSRKALHVNFKDMGWDDWIIAPLEYEAFHCEGLCEFPLLSHLEPTNHAVIQTLMNSMDPESTPPTCCVPTRLSPISILFIDSANNVVYKQYEDMVVESCGCR [R438L] |

Variants of: B2
Details: with bmpr2_human BMPR2, Q13873
Remark: another data set of the same source

| effect of a mutation on the interaction | Variant |
| --- | --- |
| increasing interaction | MRLPKLLTFLLWYLAWLDLEFICTVLGAPDLGQRPQGTRPGLAKAEAKERPPLARNVFRPGGHSYGGGATNANARAKGGTGQTGGLTQPKKDEPKKLPPRPGGPEPKPGHPPQTRQATARTVTPKGQLPGGKAPPKAGSVPSSFLLKKAREPGPPREPKEPFRPPPITPHEYMLSLYRTLSDADRKGGNSSVKLEAGLANTITSFIDKGQDDRGPVVRKQRYVFDISALEKDGLLGAELRILRKKPSDTAKPAAPGGGRAAQLKLSSCPSGRQPAALLDVRSVPGLDGSGWEVFDIWKLFRNFKNSAQLCLELEAWERGRAVDLRGLGFDRAARQVHEKALFLVFGRTKKRDLFFNEIKARSGQDDKTVYEYLFSQRRKRRAPLATRQGKRPSKNLKARCSRKALHVNFKDMGWDDWIIAPLEYEAFHCEGLCEFPLLSHLEPTNHAVIQTLMNSMDPESTPPTCCVPTRLSPISILFIDSANNVVYKQYEDMVVESCGCR [R438L] |

Variants of: B2
Details: with bmr1a_human BMPR1A

| effect of a mutation on the interaction | Variant |
| --- | --- |
| increasing interaction | MRLPKLLTFLLWYLAWLDLEFICTVLGAPDLGQRPQGTRPGLAKAEAKERPPLARNVFRPGGHSYGGGATNANARAKGGTGQTGGLTQPKKDEPKKLPPRPGGPEPKPGHPPQTRQATARTVTPKGQLPGGKAPPKAGSVPSSFLLKKAREPGPPREPKEPFRPPPITPHEYMLSLYRTLSDADRKGGNSSVKLEAGLANTITSFIDKGQDDRGPVVRKQRYVFDISALEKDGLLGAELRILRKKPSDTAKPAAPGGGRAAQLKLSSCPSGRQPAALLDVRSVPGLDGSGWEVFDIWKLFRNFKNSAQLCLELEAWERGRAVDLRGLGFDRAARQVHEKALFLVFGRTKKRDLFFNEIKARSGQDDKTVYEYLFSQRRKRRAPLATRQGKRPSKNLKARCSRKALHVNFKDMGWDDWIIAPLEYEAFHCEGLCEFPLLSHLEPTNHAVIQTLMNSMDPESTPPTCCVPTRLSPISILFIDSANNVVYKQYEDMVVESCGCR [R438L] |
